Target: T1, TEV protease (Tobacco etch virus, UniProt P04517)
T1 construct: With co-expression of the TEV protease; expressed in transfected cells; host or cells: HEK293 / HEK293T
Assay: iTEV (EK) coiled-coil sensor in HEK293 cells without or with TEV protease
Type: cell-based
From the text: HEK293 cells were transfected with the iTEV (EK) sensor without (top two panels) or with (bottom two panels) TEV protease.
For example, heterodimeric coiled coils were used to replace split GFP in iTEV (De Crescenzo, G., Litowski, J. R., Hodges, R. S. & O'Connor-McCourt, M. D. Real-Time Monitoring of the Interactions of Two-Stranded de NovoDesigned Coiled-Coils: Effect of Chain Length on the Kinetic and Thermodynamic Constants of Binding †. Biochemistry 42, 1754-1763 (2003)).

T1 sequence (P04517 2038-2279): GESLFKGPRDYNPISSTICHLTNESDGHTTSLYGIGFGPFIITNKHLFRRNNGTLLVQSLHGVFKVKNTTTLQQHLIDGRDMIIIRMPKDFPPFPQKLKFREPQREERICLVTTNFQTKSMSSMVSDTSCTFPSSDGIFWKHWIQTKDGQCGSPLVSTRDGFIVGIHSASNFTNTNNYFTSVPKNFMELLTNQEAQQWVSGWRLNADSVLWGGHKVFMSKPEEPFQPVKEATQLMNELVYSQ

B1: iTEV (EK) (protein)
chain: MGGSKVSALKEKVSALKEKVSALKEKVSALKEKVSALKEGGSGSTTNIAPALDGAFHRITSSSSLMGLCDETATIIREITGYDRVMVVRFDEEGNGEILSERRRADLEAFLGNRYPASTIPQIARRLYEHNRVRLLVDVNYTPVPLQPRISPLNGRDLDMSLSCLRSMSPIHQKYMQDMGVGATLVCSLMVSGRLWGLIACHHYEPRFVPFHIRAAGEALAETCAIRIATLESENLYFQSEFCEREQIHLAGSIQPHGILLAVKEPDNVVIQASINAAEFLNTNSVVGRPLRDLGGDLPLQILPHLNGPLHLAPMTLRCTVGSPPRRVDCTIHRPSNGGLIVELEPATKLEGGGSGGSEVSALEKEVSALEKEVSALEKEVSALEKEVSALEK
modifications: (Amino acid sequence of iTEV(+) 5.1)
infrared fluorescence (TEV protease co-expressed): becomes infrared fluorescent | infrared fluorescence (without TEV protease): not infrared fluorescent
